Earlier results as cited in publication PMC10303925.

Assays:
SLP2-A (Homo sapiens) = SLP2-A (Homo sapiens) (UniProt Q9HCH5)
MLPH (Homo sapiens) = MLPH (Homo sapiens) (UniProt Q9BV36)
UniProt Q9BV36, sequence (Q9BV36 whole entry): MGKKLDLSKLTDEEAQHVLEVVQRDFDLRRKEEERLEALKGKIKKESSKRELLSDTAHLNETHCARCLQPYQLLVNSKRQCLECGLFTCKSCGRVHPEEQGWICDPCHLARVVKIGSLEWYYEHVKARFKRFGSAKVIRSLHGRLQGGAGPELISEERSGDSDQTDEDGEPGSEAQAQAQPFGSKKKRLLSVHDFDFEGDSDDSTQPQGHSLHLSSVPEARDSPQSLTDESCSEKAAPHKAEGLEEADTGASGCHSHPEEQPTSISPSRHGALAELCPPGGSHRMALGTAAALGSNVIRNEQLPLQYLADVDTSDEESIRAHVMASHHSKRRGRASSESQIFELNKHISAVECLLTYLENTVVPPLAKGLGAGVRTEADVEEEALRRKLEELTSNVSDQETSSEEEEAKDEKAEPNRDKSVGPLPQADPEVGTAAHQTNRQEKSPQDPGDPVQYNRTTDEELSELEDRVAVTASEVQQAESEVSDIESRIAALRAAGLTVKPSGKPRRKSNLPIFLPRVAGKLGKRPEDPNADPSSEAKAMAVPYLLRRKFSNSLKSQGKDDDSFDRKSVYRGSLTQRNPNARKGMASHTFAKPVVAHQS

UniProt Q9HCH5, sequence (Q9HCH5 whole entry): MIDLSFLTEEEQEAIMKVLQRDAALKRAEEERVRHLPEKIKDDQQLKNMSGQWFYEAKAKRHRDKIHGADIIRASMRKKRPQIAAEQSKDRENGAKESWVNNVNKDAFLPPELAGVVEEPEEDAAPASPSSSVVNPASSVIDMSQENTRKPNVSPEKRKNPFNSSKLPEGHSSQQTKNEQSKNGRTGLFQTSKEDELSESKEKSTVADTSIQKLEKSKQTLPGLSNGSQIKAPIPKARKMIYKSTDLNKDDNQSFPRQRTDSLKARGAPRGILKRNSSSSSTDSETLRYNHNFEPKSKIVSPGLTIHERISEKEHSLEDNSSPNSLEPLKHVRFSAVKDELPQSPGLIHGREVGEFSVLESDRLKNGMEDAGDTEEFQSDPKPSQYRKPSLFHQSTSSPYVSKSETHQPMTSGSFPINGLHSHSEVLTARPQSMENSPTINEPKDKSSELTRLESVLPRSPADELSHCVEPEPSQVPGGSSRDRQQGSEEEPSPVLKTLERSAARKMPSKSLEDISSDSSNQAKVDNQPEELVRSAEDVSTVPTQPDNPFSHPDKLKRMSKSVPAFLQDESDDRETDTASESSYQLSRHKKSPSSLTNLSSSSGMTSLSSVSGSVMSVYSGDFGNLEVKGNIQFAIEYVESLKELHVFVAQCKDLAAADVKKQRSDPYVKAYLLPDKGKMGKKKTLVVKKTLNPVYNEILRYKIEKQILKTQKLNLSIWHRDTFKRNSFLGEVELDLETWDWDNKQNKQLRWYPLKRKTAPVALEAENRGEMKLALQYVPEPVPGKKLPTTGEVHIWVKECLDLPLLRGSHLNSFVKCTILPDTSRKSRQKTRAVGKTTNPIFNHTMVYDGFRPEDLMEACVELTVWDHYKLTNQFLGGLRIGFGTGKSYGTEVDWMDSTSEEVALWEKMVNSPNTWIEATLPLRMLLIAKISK

In the case of RAB27A (from UniProt P51159), the Kd (SLP2-A (Homo sapiens)) is given as 20 nM and the Kd (MLPH (Homo sapiens)) is given as 200 nM.
